Consider three molecules from PMC8204306 (ACS Infectious Diseases, 2021).

One may read the Km as the substrate concentration at which the rate is half of its maximum. By kcat/Km is commonly meant the turnover number divided by the Michaelis constant.

In one data set the target is ChsB1 (Mycobacterium tuberculosis, UniProt O53547).
Substrate in data set [1]: CCCCC[C@@H](O)CC(=O)SCCNC(=O)CCNC(=O)[C@H](O)C(C)(C)COP(=O)(O)OP(=O)(O)OC[C@H]1O[C@@H](n2cnc3c(N)ncnc32)[C@H](O)[C@@H]1OP(=O)(O)O
As to the kind of experiment: purified protein. The following applies: pH 8.5; 25.0 °C.

Substrate in data set [2]: C[C@@H]([C@H]1CC[C@H]2[C@@H]3CCC4=CC(=O)CC[C@]4(C)[C@H]3CC[C@]12C)[C@@H](O)CC(=O)SCCNC(=O)CCNC(=O)[C@H](O)C(C)(C)COP(=O)(O)OP(=O)(O)OC[C@H]1O[C@@H](n2cnc3c(N)ncnc32)[C@H](O)[C@@H]1OP(=O)(O)O
Nature of the data set: purified protein. The following applies: pH 8.5; 25.0 °C.

Substrate in data set [3]: C[C@H](C(=O)CC(=O)SCCNC(=O)CCNC(=O)[C@H](O)C(C)(C)COP(=O)(O)OP(=O)(O)OC[C@H]1O[C@@H](n2cnc3c(N)ncnc32)[C@H](O)[C@@H]1OP(=O)(O)O)[C@H]1CC[C@H]2[C@@H]3CCC4=CC(=O)CC[C@]4(C)[C@H]3CC[C@]12C
As to the kind of experiment: purified protein. The following applies: pH 8.5; 25.0 °C.

Substrate in data set [4]: C[C@]12CC[C@H]3[C@@H](CCC4=CC(=O)CC[C@@]43C)[C@@H]1CC[C@@H]2O
As to the kind of experiment: purified protein. As to conditions: pH 8.5; 25.0 °C.

Substrate in data set [5]: NC(=O)C1=CN([C@@H]2O[C@H](COP(=O)(O)OP(=O)(O)OC[C@H]3O[C@@H](n4cnc5c(N)ncnc54)[C@H](O)[C@@H]3O)[C@@H](O)[C@H]2O)C=CC1
Nature of the data set: purified protein. The following applies: pH 8.5; 25.0 °C; varied: cofactor.

Substrate in data set [6]: NC(=O)c1ccc[n+]([C@@H]2O[C@H](COP(=O)(O)OP(=O)(O)OC[C@H]3O[C@@H](n4cnc5c(N)ncnc54)[C@H](O)[C@@H]3O)[C@@H](O)[C@H]2O)c1
As to the kind of experiment: purified protein. The following applies: pH 8.5; 25.0 °C; varied: cofactor.

Substrate in data set [7]: CC(=CCC[C@@H](C)[C@H]1CC[C@H]2[C@@H]3CCC4=CC(=O)CC[C@]4(C)[C@H]3CC[C@]12C)C(=O)SCCNC(=O)CCNC(=O)[C@H](O)C(C)(C)COP(=O)(O)OP(=O)(O)OC[C@H]1O[C@@H](n2cnc3c(N)ncnc32)[C@H](O)[C@@H]1OP(=O)(O)O
Nature of the data set: purified protein. The following applies: pH 7.4; 25.0 °C.

Substrate in data set [8]: CCCCC/C=C/C(=O)SCCNC(=O)CCNC(=O)[C@H](O)C(C)(C)COP(=O)(O)OP(=O)(O)OC[C@H]1O[C@@H](n2cnc3c(N)ncnc32)[C@H](O)[C@@H]1OP(=O)(O)O
As to the kind of experiment: purified protein. The following applies: pH 7.4; 25.0 °C.

Substrate in data set [9]: C[C@H](/C=C/C(=O)SCCNC(=O)CCNC(=O)[C@H](O)C(C)(C)COP(=O)(O)OP(=O)(O)OC[C@H]1O[C@@H](n2cnc3c(N)ncnc32)[C@H](O)[C@@H]1OP(=O)(O)O)[C@H]1CC[C@H]2[C@@H]3CCC4=CC(=O)CC[C@]4(C)[C@H]3CC[C@]12C
As to the kind of experiment: purified protein. The following applies: pH 7.4; 25.0 °C.

Take `NC(=O)c1ccc[n+]([C@@H]2O[C@H](COP(=O)(O)OP(=O)(O)OC[C@H]3O[C@@H](n4cnc5c(N)ncnc54)[C@H](O)[C@@H]3O)[C@@H](O)[C@H]2O)c1` [NAD^+]: at ChsB1, the “X-ray co-crystal structure, 2.21 Å” value is “Co-crystallization of NAD^+ and ChsB1 yielded cubic crystals by sitting drop vapor diffusion”.

B1: ChsB1 (Mycobacterium tuberculosis H37Rv) (protein)
chain: MKLTESNRSPRTTNTTDLSGKVAVVTGAAAGLGRAEALGLARLGATVVVNDVASALDASDVVDEIGAAAADAGAKAVAVAGDISQRATADELLASAVGLGGLDIVVNNAGITRDRMLFNMSDEEWDAVIAVHLRGHFLLTRNAAAYWRDKAKDAEGGSVFGRLVNTSSEAGLVGPVGQANYAAAKAGITALTLSAARALGRYGVCANVICPRARTAMTADVFGAAPDVEAGQIDPLSPQHVVSLVQFLASPAAAEVNGQVFIVYGPQVTLVSPPHMERRFSADGTSWDPTELTATLRDYFAGRDPEQSFSATDLMRQ
With B1, the Km in “purified protein [1]” came to 169 ± 21 µM; in “purified protein [2]” it was 5.3 ± 1 µM; in the data set “purified protein [3]”, 25 ± 5 µM; in “purified protein [4]”, 369 ± 75 µM; in “purified protein [5]”, 40 ± 6 µM; in the data set “purified protein [6]”, 70 ± 10 µM. In addition, the specificity constant (kcat/Km) in the data set “purified protein [1]” came to 15000 M⁻¹ s⁻¹; in the data set “purified protein [2]”, 1.7e+06 M⁻¹ s⁻¹; in “purified protein [3]”, 64000 M⁻¹ s⁻¹; in the data set “purified protein [4]” it was 810 M⁻¹ s⁻¹.

B2: ChsH3 (Mycobacterium tuberculosis H37Rv) (protein)
chain: MPIDLDVALGAQLPPVEFSWTSTDVQLYQLGLGAGSDPMNPRELSYLADDTPQVLPTFGNVAATFHLTTPPTVQFPGIDIELSKVLHASERVEVPAPLPPSGSARAVTRFTDIWDKGKAAVICSETTATTPDGLLLWTQKRSIYARGEGGFGGKRGPSGSDVAPERAPDLQVAMPILPQQALLYRLCGDRNPLHSDPEFAAAAGFPRPILHGLCTYGMTCKAIVDALLDSDATAVAGYGARFAGVAYPGETLTVNVWKDGRRLVASVVAPTRDNAVVLSGVELVPA
In the case of B2, the Michaelis constant (Km) stood at 12 ± 6 µM in the data set “purified protein [7]”, 112 ± 12 µM in “purified protein [8]” and 55 ± 5 µM in the data set “purified protein [9]”. Besides, the kcat/Km in the data set “purified protein [7]” is 120000 M⁻¹ s⁻¹; in the data set “purified protein [8]”, 1.5e+06 M⁻¹ s⁻¹; in “purified protein [9]” it was 2e+06 M⁻¹ s⁻¹.
